Key:
[1] = target: T1, Trx-HIS6-hTERT(1-200) (hTEN) (human, UniProt O14746 1-200); assay: competition EMSA
[2] = target: T1, Trx-HIS6-hTERT(1-200) (hTEN); assay: competition EMSA; remark: listed apart in the source
[3] = target: T1, Trx-HIS6-hTERT(1-200) (hTEN); assay: competition EMSA; remark: listed apart in the source
[4] = target: T1, Trx-HIS6-hTERT(1-200) (hTEN); assay: competition EMSA; remark: listed apart in the source
[5] = target: Trx-HIS6-hTERT(1-200) T116A/T117A/S118A (human, UniProt O14746 1-200, T116A;T117A;S118A); assay: EMSA
Chain of Trx-HIS6-hTERT(1-200) T116A/T117A/S118A (O14746 1-200 T116A/T117A/S118A): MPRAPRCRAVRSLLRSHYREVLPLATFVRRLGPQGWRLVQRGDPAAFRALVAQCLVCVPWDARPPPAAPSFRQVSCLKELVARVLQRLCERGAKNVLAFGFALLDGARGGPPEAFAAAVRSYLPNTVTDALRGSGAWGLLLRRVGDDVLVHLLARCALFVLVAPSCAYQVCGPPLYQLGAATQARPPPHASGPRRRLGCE

[6] = target: Trx-HIS6-hTERT(1-200) Q169A (human, UniProt O14746 1-200, Q169A); assay: EMSA
Chain of Trx-HIS6-hTERT(1-200) Q169A (O14746 1-200 Q169A): as the sequence (O14746 1-200 T116A/T117A/S118A) above, with A116T, A117T, A118S, Q169A counted along it

[7] = target: Trx-HIS6-hTERT(1-200) Y18A (human, UniProt O14746 1-200, Y18A); assay: EMSA
Chain of Trx-HIS6-hTERT(1-200) Y18A (O14746 1-200 Y18A): as the sequence (O14746 1-200 T116A/T117A/S118A) above, with Y18A, A116T, A117T, A118S counted along it

[8] = target: T1, Trx-HIS6-hTERT(1-200) (hTEN); assay: EMSA
[9] = target: T1, Trx-HIS6-hTERT(1-200) (hTEN); assay: competition EMSA; remark: listed apart in the source

T1 sequence (O14746 1-200): as the sequence (O14746 1-200 T116A/T117A/S118A) above, with A116T, A117T, A118S counted along it

GGGTTAGGGTTAGGG (ssDNA) [III]
binding result [1]: binds

TTAGGGTTAGCGTTAGGG (ssDNA) [I.C11]
binding signal [2]: 7 fold lower apparent affinity vs I (relative IC50)

GTTAGGGTTAGGG (ssDNA) [IV]
binding result [3]: binds

GGTTAGGGTTAGG (ssDNA) [VI / (GGTTAG)2G]
binding result [4]: binds

TTAGGGTTAGGGTTAGGG (ssDNA) [(TTAGGG)3 / I]
binding result [5]: binds | binding result [6]: binds | binding result [7]: binds | binding result [8]: binds

GGGTTAGGGTTAGGGTTA (ssDNA) [II]
binding result [1]: binds

GGTTATTATTAGG (ssDNA) [VI.TA6]
binding result [9]: binds

— PMC2847226
